Reference: patent US20250333441A1, “POLYPEPTIDE INHIBITORS AND USES THEREOF” (Neuracle Science Co., Ltd., priority 2021, published 2025)

Assays:
[1] = tested on: mouse primary cortical neurons; assay: Neurite growth of primary cortical neurons (beta-tubulin III immunostaining); type: cell-based; settings: 0.006 to 60 nM; day 3 post-initial culture; versus DMSO control
Method: Next, primary cortical neurons (day 1 postnatal) were cultured in vitro with varying concentrations (0.006 to 60 nM) of the LRRC4B (453-576) protein fragment (i.e., amino acid residues 453-576 of SEQ ID NO: 2; SEQ ID NO: 7), and then at day 3 post-initial culture, the effect on neurite growth was assessed by immunostaining the cells with anti-beta-tubulin III antibody. Cells cultured with DMSO (“Veh”) were used as control.
Mouse hippocampal neurons were treated with LRRC4B peptides at 1 and 2 DIV to determine neurite growth. It was measured by using 3 different parameters, which are total neurites length, number of primary and secondary neurites. After the neurons were stained with beta-tubulin III at 3 DIV, neurites length and branch points were measured using Fiji (Image J, NIH, Bethesda). Individual neurons were selected by hand and these parameters were counted using the Simple neurite tracer plugin. Mouse spinal motor neurons sampled at postnatal day 1 were treated with 10 nM of NS101 and LRRC4B-peptides (dFB-dWY-JM31 and dFB-DY-JM31) at 1 and 2 DIV and immunostained with Tau-5 antibody at 3 DIV. Total neurite length and number of somas in images were measured by Neurphology Image J plugin.

[2] = molecular target: FAM19A5 protein (Homo sapiens, UniProt Q7Z5A7); assay: Co-immunoprecipitation of FLAG-tagged LRRC4 family constructs with recombinant FAM19A5 in HEK293 cells; type: binding; settings: HEK293 cells expressing FLAG-tagged construct, recombinant FAM19A5 protein (1 μM) 30 minutes; anti-FLAG immunoprecipitation
Sequence of FAM19A5 protein (Q7Z5A7 44-132): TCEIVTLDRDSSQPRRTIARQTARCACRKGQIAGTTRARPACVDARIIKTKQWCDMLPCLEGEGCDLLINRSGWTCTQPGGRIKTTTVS
Method: To better understand the interaction between FAM19A5 and members of the LRRC4 protein family, HEK293 cells were modified to express a FLAG-tagged member of the LRRC4 protein family, i.e., LRRC4C protein, LRRC4 protein, or LRRC4B protein. Then, the HEK293 cells or primary cortical neurons were treated with recombinant FAM19A5 protein (1 μM) for 30 minutes, and the binding between FAM19A5 protein and the different members of the LRRC4 protein family was assessed using both co-immunoprecipitation and immunofluorescence assays.
For the co-immunoprecipitation assay, cell lysates from the different FAM19A5-treated HEK293 cells were collected and immunoprecipitated with an anti-FLAG antibody, anti-FAM19A5 (1-65) antibody, or a human IgG antibody (control). Immunoprecipitated proteins were immunoblotted with anti-FLAG and anti-FAM19A5 (3-2) antibodies. For the immunofluorescence assay, the HEK293 cells treated with the recombinant FAM19A5 protein were immunostained with anti-FAM19A5 (3-2) (to detect FAM19A5 protein expression) and anti-FLAG antibodies (to detect member of the LRRC4 protein family). The primary cortical neurons treated with the recombinant FAM19A5 protein were immunostained with anti-FAM19A5 (3-2) and anti-LRRC4B antibodies. The nuclei were stained with Hoechst33342 (blue).
To determine the specific motif or domain of the LRRC4B protein that is responsible for the binding to a FAM19A5 protein, various FLAG-tagged LRRC4B deletion constructs were generated (see Table 6 below). HEK293 cells were transfected with the different deletion constructs and then treated with recombinant FAM19A5 protein as described in Example 1. Then, the cell lysates from the different HEK293 cells were immunoprecipitated with the anti-FLAG antibody. The immunoprecipitated proteins were immunoblotted with anti-FLAG and anti-FAM19A5 (3-2) antibodies.
As described in Example 2, all members of the LRRC4 protein family were capable of binding to FAM19A5 protein to varying degrees. Therefore, to compare the bindings domains, the amino acid sequences of the LRRC4B, LRRC4, and LRRC4C proteins were aligned. […] Therefore, to assess whether the corresponding positions of LRRC4 and LRRC4C were important in the binding of these proteins to FAM19A5 protein, cDNAs encoding either (i) LRRC4C protein fragment (amino acids 354-527 of SEQ ID NO: 3; SEQ ID NO: 66) or (ii) LRRC4 protein fragment (amino acids 353-527 of SEQ ID NO: 1; SEQ ID NO: 67) were constructed (see Table 7). HEK293 cells were transfected to express either of the protein fragments and then treated with recombinant FAM19A5 protein as described in Example 1. Then, the cell lysates from the different HEK293 cells were immunoprecipitated with the anti-FLAG antibody. The immunoprecipitated proteins were immunoblotted with anti-FLAG and anti-FAM19A5 (3-2) antibodies.

[3] = tested on: APP/PS1 mice (Alzheimer mouse model); assay: Synaptic formation in hippocampal CA1 and CA3 of APP/PS1 mice; type: in vivo; settings: 30 mg/kg intravenous, four consecutive weeks; compared to mutant LRRC4B protein fragment
Method: FIGS. 16A, 16B, and 16C show the ability of LRRC4B peptide fragment (amino acid residues 453-576 of SEQ ID NO: 2; “WT”) (i.e., SEQ ID NO: 7) to promote synaptic formation in the hippocampal CA1 of APP/PS1 mice. As further described in Example 8, APP/PS1 mice were treated with the LRRC4B peptide fragment (30 mg/kg; intravenous administration) for four consecutive weeks, and then synaptic formation was assessed by fluorescence microscopy using antibodies against SYP and PSD95. Control animals received no treatment (“Cont”) or the mutant LRRC4B peptide fragment […] (i.e., comprising alanine substitutions at positions 488 and 489 of SEQ ID NO: 2; SEQ ID NO: 16). FIG. 16A provides representative fluorescent photomicrographs. FIGS. 16B and 16C show the SYP and PSD95 intensity, respectively.
FIGS. 17A, 17B, and 17C show the ability of LRRC4B peptide fragment (amino acid residues 453-576 of SEQ ID NO: 2; “WT”; SEQ ID NO: 7) to promote synaptic formation in the hippocampal CA3 of APP/PS1 mice. The animals were treated and analyzed as described in FIGS. 16A-16C. FIG. 17A provides representative fluorescent photomicrographs. FIGS. 17B and 17C show the SYP and PSD95 intensity, respectively.
Additionally, to confirm the above effect on neurite outgrowth in vivo, APP/PS1 mice (Alzheimer mouse model) were used. […] Hong et al., Science 352(6286): 712-716 (May 2016). […]

binding to FAM19A5 protein (co-immunoprecipitation) [2]: able to bind to the FAM19A5 protein
B1: LRRC4B (453-576): LRRC4B fragment, amino acids 453-576 of SEQ ID NO: 2 (SEQ ID NO: 7); used hFc-fused (protein)
chain: VSAVDPVAAGGTGSGGGGPGGSGGVGGGSGGYTYFTTVTVETLETQPGEEALQPRGTEKEPPGPTTDGVWGGGRPGDAAGPASSSTTAPAPRSSRPTEKAFTVPITDVTENALKDLDDVMKTTK
modifications: human Fc fusion in use
notes: used hFc-fused
neurite growth [1]: increased neurite growth in a dose-dependent manner | SYP and PSD95 immunoreactivities in CA1 and CA3 [3]: increased SYP and PSD95 immunoreactivities
